In patent publication US11452764B2, “Inhibiting FAK-AKT interaction to inhibit metastasis” (Board of Trustees of Michigan State University, priority 2017, dated 2022):
“Also recorded” adds a separate entry of the source. Where no end group is shown, it is not given here.

Key:
[1] = system: FAK-Tyr-397 phosphorylation; experiment: FAK-Y397 western blotting in suspended SW620 cells at ambient or 15 mmHg increased pressure (ZINC compounds); assay type: cell-based, human; conditions: for Pressure stimulation of FAK-pTyr397 / Basal FAK-pTyr397: concentrations studied: ZINC31501681 1 pM-300 μM, ZINC58264388 1 nM-100 nM, ZINC40099027 10 pM-10 nM, ZINC25613745 1 nM
Description: Extracellular pressure was increased by 15 mmHg over ambient pressure using a temperature and pressure-controlled box as described by Basson et al. (J Cell Biochem, 78: 47-61 (2000)).
Cells were maintained at ambient or increased pressure in bacteriologic plastic dishes pacificated with heat-inactivated bovine serum albumin to prevent adhesion and avoid adhesion-associated background FAK activation. Cells were lysed in lysis buffer, resolved by 10% SDS-PAGE, transferred to nitrocellulose and blotted with antibody to Tyr-397-phosphorylated FAK (rabbit monoclonal ab81298, Abcam, San Francisco, Calif., USA) and anti-rabbit 680 (LI-COR Inc. Lincoln, Nebr., USA), before quantitation using Kodak Scientific Imaging Systems 1D, V.3.5.4 (Zeng et al., Oncotarget, 8 98051-98067 (2017)). Total FAK (Anti-FAK, clone 4.47 Merck, Darmstadt, Germany with secondary anti-mouse 800, LI-COR Inc. Lincoln, Nebr., USA) served as a loading control. FAK and Tyr-397-phosphorylated FAK western blots yielded doublets similar to those previously observed by others (McConnell et al. Mol Cancer 10: 75 (2011); Aflaki et al. Cell Mol Life Sci, 68: 3933-3947 (2011)); Das et al. Cancer Res, 72: 6217-6226 (2012); Ammoun et al. Oncogene, 31: 1710-1722 (2012)). Both bands were quantitated together.
Four structurally similar molecules to the FAK-derived sequence LAHPP (SEQ ID NO:25) (Table 2) were evaluated for their ability to prevent FAK activation by 15 mmHg increased extracellular pressure in human SW620 colon cancer cells. […] The structures of these compounds are shown below (and in FIG. 17).

FAK-Akt1 interaction = molecular target: T1, FAK-Akt1 interaction (Homo sapiens, UniProt P31749); experiment: Interference of FAK-derived peptides with GST-FAK / GST-FAK-NT1 pull-down of Akt1; assay type: binding; conditions: for Akt1 pulldown by full length GST-FAK in presence of interfering 7 amino acid peptide: bait human wild type GST-FAK, peptides at 160 μM, vs. vehicle, n=12-14
T1 construct: endogenous in cells; host or cells: Akt1 from Caco-2/SW620 cell lysate; GST-FAK bait expressed in E. coli BL21 (pGEX-4T1)
T1 sequence (P31749 whole entry): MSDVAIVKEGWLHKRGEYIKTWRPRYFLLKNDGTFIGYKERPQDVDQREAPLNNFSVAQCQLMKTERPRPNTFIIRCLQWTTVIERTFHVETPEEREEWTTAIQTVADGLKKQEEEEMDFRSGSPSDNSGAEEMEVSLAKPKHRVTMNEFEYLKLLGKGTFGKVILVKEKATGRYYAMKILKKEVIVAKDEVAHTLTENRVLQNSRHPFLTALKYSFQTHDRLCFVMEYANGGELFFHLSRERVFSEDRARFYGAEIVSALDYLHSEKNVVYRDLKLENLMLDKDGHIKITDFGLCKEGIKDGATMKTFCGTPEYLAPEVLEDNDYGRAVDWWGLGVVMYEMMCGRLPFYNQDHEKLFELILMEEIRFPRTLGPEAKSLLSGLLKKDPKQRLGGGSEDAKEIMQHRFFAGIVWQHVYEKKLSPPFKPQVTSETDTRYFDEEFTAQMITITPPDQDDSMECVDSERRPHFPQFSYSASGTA
Description: (§1) In some cases Glutathione-Sepharose-4B beads (30 μl) (GE Healthcare Life Science, Pittsburgh, Pa.) were conjugated with GST (expressed protein from a 250 μl bacterial pellet per 30 μl of beads) or recombinant GST-tagged (expressed protein from a 3 ml bacterial pellet per 30 μl of beads) (24) and incubated with lysate from 2×10^7 Caco-2 or SW620 cells (1500 μg protein) or purified Akt1 (0.35 μg) (Origene, Rockville, Md.) overnight at 4° C. Similar incubation for two hours at 4° C. was performed with FAK-derived peptides (Peptide 2.0, Chantilly, Va.) reconstituted in sterile water and mixed with conjugated beads and cell lysate for a final concentration of […] before overnight Akt1 incubation. Bound protein was eluted for western analysis (24).
To minimize the effect of non-specific binding to GST, a larger FAK-NT1 peptide (relative to GST) was used as bait and the effects of interference by NT1-2-2 FAK truncated peptides were assessed.
A full length GST-FAK was used as bait to further validate the ability of the interfering peptides to block Akt1 interaction with the entire FAK molecule. Because the seven-amino acid sequence from the short helix (LAHPPEE, SEQ ID NO:1) seemed sufficient for Akt1 binding (e.g., as shown in FIG. 6E), the focus was placed on this seven amino acid sequence and mutants thereof. […] Neither a scrambled version of the short helix (HPELAPE, SEQ ID NO:23) nor a peptide derived from the β-strand secondary structure C-terminal adjacent to the short helix (WKYELRI) interfered with pulldown.

Akt1 = Akt1 (Homo sapiens, UniProt P31749); experiment: GST-FAK truncation/mutant fusion protein pull-down of Akt1 (cell lysate or purified Akt1); assay type: binding; parameters: endogenous in cells; host or cells: Caco-2 or SW620 cell lysate; conditions: for Akt1 pull-down by mutated GST-FAK-NT1 versus wild-type NT1: SW620 lysate, densitometry normalized to wild-type NT1, n=8-19, p<0.05; for Akt1 pulled down by GST-FAK truncations: GST pull-down, N=4, p<0.05
Akt1, sequence (P31749 whole entry, the tested form may be a part): as the sequence (P31749 whole entry) above
Description: Glutathione-Sepharose 4B beads (15 μl) were washed twice in ice-cold PBS and resuspended in 400 μl PBS. Bacterial lysate containing GST-Akt1, GST-FAK-NT1 (truncations), or GST proteins (gift of Dr. J. Chen) were then added in excess and incubated with the beads for 1 h. Glutathione-Sepharose 4B beads coupled to GST-Akt1, GST-FAK (truncations), or GST were then washed twice with PBS by centrifuge for 5 min at 500 g and incubated with nontransfected or transfected Caco-2 cell lysates (600-800 μg protein) overnight at 4° C. Transfected Caco-2 cells received plasmids encoding HA-WT-FAK or HA-FRNK. Nontransfected and transfected Caco-2 cell lysates were prepared in cell lysis buffer lysis buffer [50 mM Tris (pH 7.4), 150 mM NaCl, 1% Triton X-100, 1% sodium deoxycholate, 0.1% SDS, 1 mM EDTA, 1 mM phenylmethylsulfonyl fluoride, 1 mM Na3VO4, 50 mM NaF, 10 mM sodium pyrophosphate, […] (pH 7.4)]. Following incubation, beads were washed twice with lysis buffer without SDS and protease inhibitors. Proteins were eluted with Laemmli SDS sample dilution buffer, separated by 10% SDS-PAGE, and immunoblotted with GST, Akt1 (Cell Signaling Technology, Danvers, Mass.), or HA monoclonal antibodies (Covance, Chantilly, Va.).
as §1
Protein concentrations were determined by bicinchoninic acid (BCA) protein assay (Pierce, Rockford, Ill.). Eluate from GST pull-downs or collected cell lysates was resolved by SDS-PAGE and transferred to Hybond P 0.45 PVDF blotting membrane (Amersham Life Science, Arlington Heights, Ill.). Membranes were blocked for 1 hour at room temperature with Odyssey TBS Blocking Buffer (Amersham Life Science, Arlington Heights, Ill.) and blotted overnight at 4° C. with antibodies against FAK (#3285), Phospho-FAK Tyr397 (#3283), Akt1 (#2967), Phospho-Akt1 Ser473 (#9271), GSK-3β (#9315), Phospho-GSK-3β Ser9 (#9315), or the GST tag (#2624) (CST, Beverly, Mass.). Membranes were visualized by the infrared fluorescent IRDye system (LI-COR Biosciences, Lincoln, Nebr.) and analyzed on an Odyssey scanner (LI-COR Biosciences, Lincoln, Nebr.) within the linear range. The doublet produced by the Akt1 antibody is consistent with results with this antibody (Ko et al., Elife: 5 (2016); Wu et al. Cell Discov 3: 16054 (2017)) and other (Datta et al. Cell 91: 231-41 (1997)) anti-Akt antibodies. Results were normalized to the appropriate GST tag, GAPDH, or total protein (for phosphorylated proteins) and relative to associated ambient controls unless stated otherwise.
Because the NT1 region of FAK is still quite large, we further truncated FAK-NT1 in an attempt to specify the region responsible for Akt1 binding. Five truncations were generated: NT1 (residues 1-126), NT1-1 (residues 1-60), NT1-2 (residues 61-126), […] (residues 61-93), and NT1-2-2 (residues 94-126) (FIG. 4A).
Tests involved use of 0.3 μg of purified Akt1 in pull-down assays to approximate the Akt1 in 1,500 μg of whole cell lysate, the lysate from 1×10^7 SW620 cells previously used in similar pull-down assays. This amount (0.3 μg of purified Akt1) was selected from Western blots comparing band intensity of 0.001-0.05 μg/lane of purified Akt1 against the band intensity of 40 or 80 μg/lane of cell lysate (not shown). […]

[2] = SW620, 15 mmHg increased pressure

For `C=C(Cl)/C(=C\C)[C@H](CC(=O)N1CCC[C@H]1c1ccc(OC)c(OC)c1)NC(N)=O` [ZINC25613745], the “Pressure stimulation of FAK-pTyr397” value [1, 2] was “affected neither basal nor pressure-stimulated FAK-Tyr-397 phosphorylation; also recorded: Maintained” and the “Basal FAK-pTyr397” value ([1]; SW620, ambient pressure) was “affected neither basal nor pressure-stimulated FAK-Tyr-397 phosphorylation; also recorded: No change”.
With `O=C(N[C@@H](CC(=O)N1CCC[C@H]1c1nnc2ccccn12)c1ccccc1)c1ccccc1` [ZINC31501681] the “Pressure stimulation of FAK-pTyr397” value [1, 2] was “prevented a further pressure-induced increase in FAK-Tyr-397 phosphorylation”, the “Basal FAK-pTyr397” value ([1]; SW620, ambient pressure) was “increased basal FAK-Tyr-397 phosphorylation” and the “Phosphorylation of FAK-Tyr-397 at ambient pressure (pFAKY397/FAK)” value ([1]; suspended SW620, 1-100 pM, 30 minutes, vs 0.1% DMSO, five experiments, p≤0.05) was “enhances the phosphorylation of FAK-Tyr-397”.
`COc1ccc([C@@H]2CCCN2C(=O)Nc2cc(C(F)(F)F)ccc2N2CCOCC2)cc1` [ZINC40099027] was tested, and the “Pressure stimulation of FAK-pTyr397” value [1, 2] was “prevented a further pressure-induced increase in FAK-Tyr-397 phosphorylation” and the “Basal FAK-pTyr397” value ([1]; SW620, ambient pressure) was “increased basal FAK-Tyr-397 phosphorylation”.
In the case of `Cc1ccccc1[C@@H]1CCCN1C(=O)C[C@H](NC(N)=O)c1cccs1` [ZINC58264388], the “Concentrations at which there was no further increase of FAK-pTyr397 by pressure” value [1, 2] is reported as “(10-100 nM)”, the “Pressure stimulation of FAK-pTyr397” value [1, 2] is reported as “prevented a further pressure-induced increase in FAK-Tyr-397 phosphorylation” and the “Concentrations at which basal FAK-pTyr397 was increased” value ([1]; SW620, ambient pressure) is reported as “(10-100 nM)”. The “Basal FAK-pTyr397” value ([1]; SW620, ambient pressure) was “increased basal FAK-Tyr-397 phosphorylation”.
With “AAHCGEE [triple mutant L113A, P116C, P117G version of the FAK peptide]” the “Akt1 pulldown by full length GST-FAK in presence of interfering 7 amino acid peptide” value (“Akt1 pulldown by full length GST-FAK” for short) (FAK-Akt1 interaction) was “reduced Akt1 pulldown”.
In the case of “EVHWVHLDMGVSSVREKYELAHPPEEWKYELRI (listed as Homo sapiens) [Pep-FAK-NT1-2-2, wild-type 33 amino acid FAK peptide, residues 94-126]”, the “Akt1 pulled down by GST-FAK-NT1 in presence of interfering 33 amino acid peptide” value (FAK-Akt1 interaction; bait GST-FAK-NT1, vs. vehicle (water), n=4) is reported as “reduced binding between GST-FAK-NT1 and Akt1”.
For “FAK(L113A/P116C/P117G): GST-FAK-NT1 triple mutant (AAHCGEE)”, the “Akt1 pull-down by mutated GST-FAK-NT1 versus wild-type NT1” value (Akt1) was “increased Akt1 pull-down”.
With “FAK(P117S): GST-FAK-NT1 with P117S mutation (LAHPSEE)” the “Akt1 pull-down by mutated GST-FAK-NT1 versus wild-type NT1” value (Akt1) was “lowered Akt1 pull-down”.
“HPELAPE [scrambled short helix control peptide, reference compound]” was tested, and the “Akt1 pulldown by full length GST-FAK” value (FAK-Akt1 interaction) was “No such effect”.
For “LAHPPEE (listed as Homo sapiens) [wild-type seven amino acid short helix peptide, FAK residues 113-119]”, the “Akt1 pulldown by full length GST-FAK” value (FAK-Akt1 interaction) was “reduced Akt1 pulldown”.
“LAHPSEE [mutant (P117S) version of the seven amino acid FAK peptide]” was tested, and the “Akt1 pulldown by full length GST-FAK” value (FAK-Akt1 interaction) was “reduced Akt1 pulldown”.
With “NT1-1: recombinant GST-FAK truncated peptide, residues 1-60 (MAAAYLDPNLNHTPNSSTKTHLGTGMERSPGAMERVLKVFHYFESNSEPTTWASIIRHGD; also: recombinant GST fusion (GST tag); listed as Homo sapiens)” the “Akt1 pulled down by GST-FAK truncations” value (Akt1) was “significantly smaller amount of Akt1”.
For “NT1-2-1: recombinant GST-FAK truncated peptide, residues 61-93 (ATDVRGIIQKIVDSHKVKNVACYGFRLSHLRSE; also: recombinant GST fusion (GST tag); listed as Homo sapiens)”, the “Akt1 pulled down by GST-FAK truncations” value (Akt1) was “significantly smaller amount of Akt1”.
For “NT1-2-2: recombinant GST-FAK truncated peptide, residues 94-126 (SEQ ID NO:2) (EVHWVHLDMGVSSVREKYELAHPPEEWKYELRI; also: GST fusion (recombinant))”, the “Akt1 pulled down by GST-FAK truncations” value (Akt1) was “significantly more Akt1” and the “Akt1 pull-down by GST-NT1-2-2 and its truncations versus GST control” value (Akt1; n=6, p<0.05 vs. GST) was “pulled down much more”.
With “WKYELRI [β-strand control peptide, C-terminal adjacent to the short helix, reference compound]” the “Akt1 pulldown by full length GST-FAK” value (FAK-Akt1 interaction) was “No such effect”.
